Results published in publication PMC4599966.

How the values were obtained:
LC3C (two-hybrid bait) = LC3C (two-hybrid bait) (UniProt Q9BXW4); test: mammalian 2-hybrid assay; settings: CHOK.1 cells; LC3C as bait; parent: est. 79; read off a plot
LC3B (two-hybrid bait) = LC3B (two-hybrid bait) (UniProt Q9GZQ8); test: mammalian 2-hybrid assay; settings: CHOK.1 cells, LC3B as bait, read off a plot
[1] = target: TAX1BP1 zinc finger domain (human) (UniProt Q86VP1); test: NMR titration; 1H/15N HSQC of 15N-labelled TAX1BP1 zinc fingers (P0 150 μM) with increasing unlabelled ubiquitin, and the reciprocal titration of 15N-labelled ubiquitin; PBS, 10 mM β-mercaptoethanol, 20°C; shift changes of peaks of each zinc finger fitted to a single site-binding model

Sequence of UniProt Q9BXW4 (Q9BXW4 whole entry): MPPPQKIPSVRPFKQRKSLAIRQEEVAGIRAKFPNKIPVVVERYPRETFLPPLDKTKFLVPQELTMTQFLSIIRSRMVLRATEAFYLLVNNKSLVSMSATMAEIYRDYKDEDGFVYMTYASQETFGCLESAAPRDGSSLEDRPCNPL

response (LC3C (two-hybrid bait)) | response (LC3B (two-hybrid bait); parent: est. 85) | response (LC3B (two-hybrid bait); parent: est. 98) | KD, site ZF1 (N-terminal module) [1] | KD, site ZF2 (C-terminal module) [1] | Substance
34 | 20 | 27 | – | – | TAX1BP1 full-length wild-type (two-hybrid prey) (from UniProt Q86VP1) V144S
– | – | – | 70 µM | 7 µM | mono-ubiquitin (from UniProt P0CG48 1-76) (natural protein)
